Results from US20220242973A1 (Molecular Partners, published 2022).

Legend:
[1] = target: T1, Human FAP expressed on the cell surface (WI38, CHO-FAP1.9, U87MG cells) (human, UniProt Q12884 1-760); assay: FACS on WI38 cells (FAP on the cell surface), His-tag detected with Penta-His AF647 conjugate, median fluorescence intensity
T1 construct: whole, on cells; Endogenous on WI38 and U87MG cells; from a human FAP cDNA (OriGene) in CHO-FAP1.9 cells; also called hFAP; FAP+ cells
T1 sequence (looked up): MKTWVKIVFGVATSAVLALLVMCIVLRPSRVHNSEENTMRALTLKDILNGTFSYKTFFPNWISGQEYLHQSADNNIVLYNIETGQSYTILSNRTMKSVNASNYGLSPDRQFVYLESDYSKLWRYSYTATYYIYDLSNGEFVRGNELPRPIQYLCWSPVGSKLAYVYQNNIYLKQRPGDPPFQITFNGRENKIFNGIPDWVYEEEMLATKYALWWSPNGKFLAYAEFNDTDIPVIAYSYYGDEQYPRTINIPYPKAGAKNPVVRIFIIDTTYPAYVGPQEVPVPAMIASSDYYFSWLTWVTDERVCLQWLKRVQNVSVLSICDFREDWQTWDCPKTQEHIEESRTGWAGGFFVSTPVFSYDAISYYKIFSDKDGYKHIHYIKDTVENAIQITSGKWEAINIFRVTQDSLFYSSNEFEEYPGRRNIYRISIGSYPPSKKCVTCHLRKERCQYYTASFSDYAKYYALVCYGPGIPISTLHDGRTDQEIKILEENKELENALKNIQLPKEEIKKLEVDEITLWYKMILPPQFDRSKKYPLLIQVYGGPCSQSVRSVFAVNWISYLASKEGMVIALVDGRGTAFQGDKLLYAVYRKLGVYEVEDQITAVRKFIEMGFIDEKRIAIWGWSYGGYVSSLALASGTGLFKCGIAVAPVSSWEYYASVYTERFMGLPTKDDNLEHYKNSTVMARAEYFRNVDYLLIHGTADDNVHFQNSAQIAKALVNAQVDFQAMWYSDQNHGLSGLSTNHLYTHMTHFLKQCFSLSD
Experimental: (§1) In order to determine whether the fusion of a biologically active molecule to a FAP-specific ankyrin repeat domain affects the ability of the molecule to specifically recognize and bind to FAP expressed on the surface of cells, the binding of selected ankyrin repeat fusion proteins to FAP-expressing cells was tested. U87 MG cells and WI38 cells are known to express FAP on the cell surface and they were chosen as representative cells for these experiments. FAP expression on the U87 MG and WI38 cells was confirmed by FACS analysis (data not shown).
(§2) Using multi-well plates, 40,000 cells (either U87MG or WI38) were added per well in 50 μl of PBS. 50 μl of appropriate dilutions (2× dilution steps) of ankyrin repeat fusion protein (DARPin® protein #40 or DARPin® protein #41) was then added to the cells and incubated for 30 minutes on ice. After the ankyrin repeat fusion protein-binding reaction, cells were washed twice with PBS. Direct immunofluorescent detection of the His-tagged ankyrin repeat fusion proteins using Penta-His AF647 conjugate (QIAgen) and determination of live cells using LIVE/DEAD™ Fixable Green Dead Cell Stain Kit (ThermoFisher) were then performed together in one step. […] Acquisition and FACS analysis, including the determination of median fluorescence intensity (MFI), were done within 5 days after staining using an AttuneNxT instrument. […]

[2] = target: T1, Human FAP expressed on the cell surface …; assay: FACS on U87MG cells (FAP on the cell surface), His-tag detected with Penta-His AF647 conjugate, median fluorescence intensity
Experimental: as §1, §2

EC50 (read off the curve) [1]: ~2 nM | EC50 (read off the curve) [2]: ~2 nM
B1: DARPin® protein #40 (designed binder)
chain: MRGSHHHHHHGSDLGKKLLEAARAGQDDEVRELLKAGADVNAKDYFSHTPLHLAARNGHLKIVEVLLKAGADVNAKDFAGKTPLHLAANEGHLEIVEVLLKAGADVNAQDIFGKTPADIAADAGHEDIAEVLQKAAGSPTPTPTTPTPTPTTPTPTPTGSDLGKKLLEAARAGQDDEVRILLAAGADVNAKDVLGWTPLHLAAFEGHLEIVEVLLKAGADVNAKDKKGWTPLQLAARTGHLEIVEVLLKAGADVNAKDHIGATPLHLAAWQGHPEIVEVLLKAGADVNAQDKSGKTPADLAADAGHEDIAEVLQKAA
notes: Fusion of a serum albumin-specific and a FAP-specific ankyrin repeat domain
